Assay in all cases: phage ELISA, apparent Kd; PBS, 50 uM ZnCl2, 20 C
Holding throughout (conditions): protein: virion; tags: phage fd pIII fusion (Fd-Tet-SN), Zif268 framework; label: 5' biotin

For one series, the target named is zfHAE(Y). As to the method: (§1) Binding sites are synthesised as described above, including biotinylated sites where 5-meC (M) is replaced by a C or T (with appropriate bases in the complementary strand). Two-fold dilutions of DNA are added to separate wells of a streptavidin-coated microtitre plate (Boehringer Mannheim) in 50 µl PBS containing 50 µM ZnCl_2 (PBS/Zn). Phage solution (bacterial culture supernatant diluted 1:10 in PBS/Zn containing 2% (w/v) fat-free dried milk (Marvel), 1% (v/v) Tween and 20 µg/ml sonicated salmon sperm DNA) are applied to each well (50 µl/well). Binding is allowed to proceed for one hour at 20° C. Unbound phage are removed by washing 6 times with PBS/Zn containing 1% (v/v) Tween, then 3 times with PBS/Zn. Bound phage are detected by ELISA using horseradish peroxidase-conjugated anti-M13 IgG (Pharmacia Biotech) and the colourimetric signal quantitated using SOFTMAX 2.32 (Molecular Devices).
(§2) Zinc finger phage binding for each of the above clones is titrated against different amounts of methylated and unmethylated DNA oligos to derive values of the apparent dissociation constants (K_ds) for either DNA binding site (see FIGS. 4 and 5). The apparent Kd of each clone for the optimally bound DNA site(s) is in the nanomolar range, similar to that of wild-type Zif268 DNA-binding domain for its preferred target site using this assay. Clones zfHAE(M) (Table 1 F1: SEQ ID NO.:20; F2: SEQ ID NO.:25; F3: SEQ ID NO.:30) and zfHHA(M) (Table 1 F1: SEQ ID NO.:21; F2: SEQ ID NO.:26; F3: SEQ ID NO.:31) preferentially bind their respective DNA target sites when 5-meC is incorporated into the correct nucleotide positions, and discriminated against the unmethylated DNA sites by factors of approximately 20-fold and 5-fold, respectively.

For series [1], the target named is zfHAE(M). The protocol:
as §1, §2

Another series addresses zfHHA(M). As to the method:
as §1, §2

The target of a further series is zfHHA(Y). As to the method:
as §1, §2

The target in series [2] is zfHAE(M). As to the method:
as §1
The source holds these as a separate data set.

Residue numbers refer to the chain shown, from its start.

B1: HAE(M) G-GGMC-GGCG (dsDNA)
DNA 1: TATAGTGGGCCGGCGTGTCACAGTCAGTCCACACACGTC
DNA 2: GACGTGTGTGGACTGACTGTGACACGCCGGCCCACTATA
modifications: 5mC at M (G-GGMC-GGCG), both strands [10 (5mC)]
Take B1: the Kd with zfHAE(Y) amounted to 6.3 nM; with zfHAE(M) [1], 2 nM.

B2: HHA(M) G-GMGC-GGCG (dsDNA)
DNA 1: B1 DNA 1 with G9C, C10G
DNA 2: B1 DNA 2 with G30C, C31G
modifications: 5mC at M (G-GMGC-GGCG), both strands [5mC at 9 (top strand); bottom-strand 5mC opposite G10]
With B2, the Kd with zfHHA(M) and in the series with zfHHA(Y) was 14 nM throughout.

B3: HAE(T) G-GGTC-GGCG (dsDNA)
DNA 1: B1 DNA 1 with C10T
DNA 2: B1 DNA 2 with G30A
Consider B3, for which the Kd in the series with zfHAE(M) [2] was 27 nM.
